This is an account of results in publication PMC5864754, “Cryo-EM structure of the polycystic kidney disease-like channel PKD2L1” (Nature Communications, 2018).

One may read the stoichiometry N as the number of molecules, sites or subunits per partner or assembly.

This data set deals with the molecule itself. Briefly: cryo-EM structure; purified PKD2L1 (64-629) in amphipols, 20 mM HEPES pH 7.5, 150 mM NaCl, about 5 mg/ml; C4 symmetry applied; 3.38 Å.

B1: PKD2L1 (residues 64–629) (domain or fragment, mouse, UniProt A2A259 64-629, looked up)
chain: TLVSSCCLHICRSIRGLWGTTLTENTAENRELYVKTTLRELVVYIVFLVDICLLTYGMTSSSAYYYTKVMSELFLHTPSDSGVSFQTISSMSDFWDFAQGPLLDSLYWTKWYNNQSLGRGSHSFIYYENLLLGAPRLRQLRVRNDSCVVHEDFREDILNCYDVYSPDKEDQLPFGPQNGTAWTYHSQNELGGSSHWGRLTSYSGGGYYLDLPGSRQASAEALQGLQEGLWLDRGTRVVFIDFSVYNANINLFCILRLVVEFPATGGTIPSWQIRTVKLIRYVNNWDFFIVGCEVVFCVFIFYYVVEEILEIHLHRLRYLSSVWNILDLVVILLSIVAVGFHIFRTLEVNRLMGKLLQQPDTYADFEFLAFWQTQYNNMNAVNLFFAWIKIFKYISFNKTMTQLSSTLARCAKDILGFAIMFFIVFFAYAQLGYLLFGTQVENFSTFVKCIFTQFRIILGDFDYNAIDNANRILGPVYFVTYVFFVFFVLLNMFLAIINDTYSEVKEELAGQKDQLQLSDFLKQSYNKTLLRLRLRKERVSDVQKVLKGGEPEIQFEDFTSTLRELG
modifications: oligosaccharides identified on N241 and N207; glycosylation site N177
notes: Mus musculus PKD2L1, residues 64-629; lacks the EF hand and the coiled-coil domain; residues 101-563 are visible in the structure; Homotetrameric channel; Cloned in a pCAG vector; also called PKD2L1_64–629; truncated PKD2L1; source: exchanged into amphipols
Turning to B1, the “stoichiometry N” value came to 4.
